# Literature values as cited in paper PMC6435036 (Molecular pharmaceutics, 2017).
# Conditions: in humans
substance,measurement,value
"ApoA-I: endogenous apolipoprotein A-I, main protein of HDL",half-life of endogenous ApoA-I protein,79.2 h
